Test results as given in patent US20130288373A1 (published 2013).

Legend:
[1] = target: T1, Flt3D1-D5, recombinant human Flt3 ectodomain (residues 27-541) with C-terminal hexahistidine tag (human, UniProt P36888 27-541, N-linked glycosylation at 43, 100, 151, 306, 323, 351, 354, 473, 502 (at least partially occupied, by mass spectrometry)); assay: ITC at 37 C, Flt3 ectodomain titrated with FL; Flt3D1-D5 ectodomain
T1 construct: Secreted from HEK293T or HEK293S GnTI-/- cells and glycosylated; The secretion signal is not part of the mature protein; also called Flt3D15(27-541); Flt3D1-5
T1 sequence: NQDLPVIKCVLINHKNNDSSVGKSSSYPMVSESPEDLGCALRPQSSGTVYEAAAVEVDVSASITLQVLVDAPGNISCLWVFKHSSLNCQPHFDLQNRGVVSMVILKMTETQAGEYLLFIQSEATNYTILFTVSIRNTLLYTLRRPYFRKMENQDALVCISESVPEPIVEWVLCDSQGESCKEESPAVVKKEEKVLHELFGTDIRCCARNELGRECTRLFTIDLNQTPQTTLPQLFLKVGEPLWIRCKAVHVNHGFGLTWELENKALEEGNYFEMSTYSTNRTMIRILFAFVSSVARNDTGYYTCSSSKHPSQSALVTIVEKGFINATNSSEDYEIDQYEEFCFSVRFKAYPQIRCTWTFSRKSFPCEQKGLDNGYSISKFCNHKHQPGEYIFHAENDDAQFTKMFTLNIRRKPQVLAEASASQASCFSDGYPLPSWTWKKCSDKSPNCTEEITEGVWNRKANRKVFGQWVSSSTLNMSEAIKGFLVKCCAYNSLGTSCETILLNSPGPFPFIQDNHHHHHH
Method: (§1) Experiments were carried out using a VP-ITC MicroCalorimeter (MicroCal, MA) at 37° C., and data were analyzed using the Origin ITC analysis software package supplied by MicroCal. Purified recombinant Flt3 ectodomain constructs and FL were dialyzed overnight against 10 mM Tris-HCl, pH 7.4, at 4° C. Protein concentrations were measured spectrophotometrically at 280 nm using calculated theoretical extinction coefficients and all solutions were extensively degassed prior to use. The sample was stirred at a speed of 400 rpm throughout. The thermal titration data were fit to the “one binding site model”, and apparent molar reaction enthalpy (ΔH°), apparent entropy (ΔS°), association constant (Ka) and stoichiometry of binding (N) were determined. Several titrations were performed to evaluate reproducibility.
(§2) To quantify the thermodynamics, stoichiometry and affinity of extracellular complexes and to dissect the contribution of individual ectodomain modules to complex formation, isothermal titration calorimetry (ITC) was employed. This led to a number of consensus observations (FIG. 1D-F). […] Upon adjusting the Flt3 concentration to the approximate active receptor fraction (˜50%) estimated via the chromatographic elution profile of complex formation, a stoichiometry and thermodynamic signature consistent with that of the other two complexes is detected (FIG. 1F).

[2] = target: T1, Flt3D1-D5, recombinant human Flt3 …; assay: ITC at 37 C, one binding site model
Method: as §1, §2

[3] = target: T2, Flt3D1-D4, recombinant human Flt3 ectodomain variant (residues 27-434) with C-terminal hexahistidine tag (human, UniProt P36888 27-434, N-linked glycosylation (glycosylated protein from HEK293 cells)); assay: ITC at 37 C, one binding site model
T2 construct: Secreted from HEK293T or HEK293S GnTI-/- cells and glycosylated; also called Flt3D14(27-434); Flt3D1-4
T2 sequence: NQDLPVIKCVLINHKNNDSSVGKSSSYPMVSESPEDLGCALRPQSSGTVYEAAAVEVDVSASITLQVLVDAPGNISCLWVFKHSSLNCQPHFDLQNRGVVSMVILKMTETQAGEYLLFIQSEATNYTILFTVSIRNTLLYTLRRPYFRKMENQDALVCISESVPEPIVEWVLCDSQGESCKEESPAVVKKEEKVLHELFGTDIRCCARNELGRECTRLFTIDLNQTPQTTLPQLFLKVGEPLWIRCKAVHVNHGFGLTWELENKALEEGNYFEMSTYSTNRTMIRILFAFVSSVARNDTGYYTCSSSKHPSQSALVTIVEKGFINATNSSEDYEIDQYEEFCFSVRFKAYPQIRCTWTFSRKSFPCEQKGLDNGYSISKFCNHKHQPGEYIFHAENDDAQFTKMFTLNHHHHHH
Method: as §1, §2

[4] = target: T3, Flt3D1, recombinant human Flt3 ectodomain variant (residues 27-161) with C-terminal hexahistidine tag (human, UniProt P36888 27-161, N-linked glycosylation (glycosylated protein from HEK293 cells)); assay: size-exclusion chromatography with FL
T3 construct: also called Flt3D1(27-161)
T3 sequence: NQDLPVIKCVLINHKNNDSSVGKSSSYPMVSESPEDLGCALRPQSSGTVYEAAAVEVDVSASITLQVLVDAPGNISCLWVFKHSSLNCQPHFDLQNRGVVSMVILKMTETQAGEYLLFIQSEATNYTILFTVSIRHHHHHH

[5] = target: T4, Flt3D1-D2, recombinant human Flt3 ectodomain variant (residues 27-244) with C-terminal hexahistidine tag (human, UniProt P36888 27-244, N-linked glycosylation (glycosylated protein from HEK293 cells)); assay: size-exclusion chromatography with FL
T4 construct: also called Flt3D12 (27-244)
T4 sequence: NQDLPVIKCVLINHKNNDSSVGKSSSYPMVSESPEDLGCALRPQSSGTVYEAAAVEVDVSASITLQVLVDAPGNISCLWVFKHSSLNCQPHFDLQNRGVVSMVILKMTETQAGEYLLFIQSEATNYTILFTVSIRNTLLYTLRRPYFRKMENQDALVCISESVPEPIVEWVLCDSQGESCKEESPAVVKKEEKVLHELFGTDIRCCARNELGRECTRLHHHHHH

[6] = target: T1, Flt3D1-D5, recombinant human Flt3 …; assay: isothermal titration calorimetry at 37 °C, Flt3 ectodomain titrated with FL, one binding site model
Text: (§3) (A-B) Isolation of Flt3D1-D5:FL and Flt3D1-D4:FL by size-exclusion chromatography (SEC). Also shown are Coomassie-stained SDS-PAGE strips corresponding to the peak fraction of the isolated complexes. The elution profiles of the complexes are characterized by large shifts to a single, faster migrating peak corresponding to the respective complex. (C) Size-exclusion chromatography on the Flt3D1-D3:FL mixture at the end of an ITC experiment, showing that a large amount of Flt3D1-D3 remains in the unbound form. Identical elution profiles were obtained in standard SEC experiments as well, in the presence of a large molar excess of FL. (D-F) Binding isotherms and thermodynamic parameters of FL binding to Flt3 ectodomains obtained by Isothermal Titration calorimetry (ITC). All experiments were performed by titrating recombinant Flt3 extracellular domains with FL.
as §1

[7] = target: T2, Flt3D1-D4, recombinant human Flt3 …; assay: as above
Text: as §3, §1

[8] = target: T5, Flt3D1-D3, recombinant human Flt3 ectodomain variant (residues 27-346) with C-terminal hexahistidine tag (human, UniProt P36888 27-346, N-linked glycosylation (glycosylated protein from HEK293 cells)); assay: as above
T5 construct: also called Flt3D13(27-346)
T5 sequence: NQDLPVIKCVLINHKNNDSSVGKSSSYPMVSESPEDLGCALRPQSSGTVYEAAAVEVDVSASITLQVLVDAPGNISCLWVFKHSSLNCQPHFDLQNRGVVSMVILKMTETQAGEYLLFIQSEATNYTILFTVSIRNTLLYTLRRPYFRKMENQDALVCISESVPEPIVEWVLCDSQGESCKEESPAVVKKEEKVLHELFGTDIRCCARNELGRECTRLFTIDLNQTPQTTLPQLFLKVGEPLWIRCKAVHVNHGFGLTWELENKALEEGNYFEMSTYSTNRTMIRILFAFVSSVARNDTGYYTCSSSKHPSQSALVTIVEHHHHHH
Text: as §3, §1

[9] = target: T5, Flt3D1-D3, recombinant human Flt3 …; assay: ITC at 37 C, Flt3 ectodomain titrated with FL; Flt3D1-D3 ectodomain; about 50% active receptor fraction
Method: as §1, §2

[10] = target: T2, Flt3D1-D4, recombinant human Flt3 …; assay: ITC at 37 C, Flt3 ectodomain titrated with FL; Flt3D1-D4 ectodomain
Method: as §1, §2

Kd [1]: 8.7 nM | stoichiometry of binding (N) [2]: 0.5 | stoichiometry of binding (N) [3]: 0.5 | binding result [4]: no binding | binding result [5]: no binding | N [6]: 0.42 | ΔH [6]: -51.7 kcal/mol | ΔS [6]: -130 cal mol-1 K-1 | N [7]: 0.45 | ΔH [7]: -55.9 kcal/mol | ΔS [7]: -146 cal mol-1 K-1 | Kd [8]: 74.6 nM | N [8]: 0.121 | ΔH [8]: -24.9 kcal/mol | ΔS [8]: -47.5 cal mol-1 K-1 | Kd [9]: 70 nM | Kd [10]: 40 nM
B1: recombinant human FL (fms-like tyrosine kinase receptor-3 ligand) produced in E. coli (ligand)
chain: TQDCSFQHSPISSDFAVKIRELSDYLLQDYPVTVASNLQDEELCGGLWRLVLAQRWMERLKTVAGSKMQGLLERVNTEIHFVTKCAFQPPPSCLRFVQTNISRLLQETSEQLVALKPWITRQNFSRCLELQCQP
notes: Dimeric cytokine; also called Flt3 ligand; cognate ligand
